{"source": "patent US20210085800A1", "about": "(IMMUNOGEN, published 2021)", "binders": {"B1": {"name": "huMOV19-C442-D5 (antibody, IgG1, V domains shown)", "VH": "QVQLVQSGAEVVKPGASVKISCKASGYTFTGYFMNWVKQSPGQSLEWIGRIHPYDGDTFYNQKFQGKATLTVDKSSNTAHMELLSLTSEDFAVYYCTRYDGSRAMDYWGQGTTVTVSS", "VL": "DIVLTQSPLSLAVSLGQPAIISCKASQSVSFAGTSLMHWYHQKPGQQPRLLIYRASNLEAGVPDRFSGSGSKTDFTLTISPVEAEDAATYYCQQSREYPYTFGGGTKLEIKR", "modifications": "compound D5 linked through its maleimide to the thiol of the engineered Cys 442 (EU/OU numbering); average 2 mol D5/mol antibody"}, "B2": {"name": "huMOV19 antibody (unconjugated) (antibody, human IgG1, V domains shown)", "VH": "B1 VH", "VL": "B1 VL", "notes": "Human IgG1; also called humanized MOV19 antibody; M9346A; copies: 2 + 2"}, "B3": {"name": "huMOV19-D2 (antibody, V domains shown)", "VH": "B1 VH", "VL": "B1 VL", "modifications": "compound D2 linked to lysine residues (positions and chain not stated)"}, "B4": {"name": "huMOV19-C442-D4 (antibody, IgG1, V domains shown)", "VH": "B1 VH", "VL": "B1 VL", "modifications": "compound D4 linked through its maleimide to the thiol of the engineered Cys 442 (EU/OU numbering); average 2 mol D4/mol antibody"}, "B5": {"name": "huMOV19-sulfo-SPDB-D1 (antibody, V domains shown)", "VH": "B1 VH", "VL": "B1 VL", "modifications": "compound D1 linked through a sulfo-SPDB linker to lysine side chain amino groups (positions and chain not stated)"}}, "key": {"[1]": {"target": "T1, folate receptor alpha (FRα) on the surface of KB and T47D cells (UniProt P15328 25-234, limits assumed)", "T1 sequence (P15328 25-234 limits assumed, stated change not applied)": "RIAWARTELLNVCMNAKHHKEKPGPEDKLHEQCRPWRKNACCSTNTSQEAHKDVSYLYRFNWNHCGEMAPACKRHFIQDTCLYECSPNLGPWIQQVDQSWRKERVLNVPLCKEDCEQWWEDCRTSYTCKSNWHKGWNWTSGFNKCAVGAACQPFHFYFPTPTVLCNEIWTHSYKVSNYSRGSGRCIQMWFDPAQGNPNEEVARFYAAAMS", "test": "cell-based or functional assay"}, "[2]": {"target": "T1, folate receptor alpha (FRα) on the …", "test": "blocking of FRα on KB cells (2 µM) in a cytotoxicity assay", "procedure": "The cell lines were cultured in culture medium as recommended by the cell supplier (ATCC or DSMZ). To each well of a flat bottom 96-well plate was added 1,000-2,000 cells in 100 μL of the culture medium. Conjugates were diluted into the culture medium using 3-fold dilution series and 100 μL were added per well. […] Control wells containing cells and the medium but lacking the conjugates, as well as wells containing medium only, were included in each assay plate. Assays were performed in triplicate for each data point. The plates were incubated at 37° C. in a humidified 6% CO₂ incubator for 5 to 6 days. Then the relative number of viable cells in each well was determined using either the Alamar Blue reagent according the manufacturer's protocol (Life Technologies) or the WST-8 based Cell Counting Kit-8 (Dojindo Molecular Technologies, Inc., Rockville, Md.). The apparent surviving fraction of cells in each well was calculated by first correcting for the medium background absorbance, and then dividing each value by the average of the values in the control wells (non-treated cells). The surviving fraction of cells was plotted against conjugate concentration in semi-log plots."}}, "data": [{"binder": "B1", "values": [{"measurement": "fold loss of cytotoxicity when FRα is blocked by unconjugated huMOV19", "setting": "[1]", "result": 100, "unit": "fold"}]}, {"binder": "B2", "values": [{"measurement": "binding result", "setting": "[2]", "result": "binds"}]}, {"binder": "B3", "values": [{"measurement": "fold loss of cytotoxicity when FRα is blocked by unconjugated huMOV19", "setting": "[1]", "result": 100, "unit": "fold"}]}, {"binder": "B4", "values": [{"measurement": "fold loss of cytotoxicity when FRα is blocked by unconjugated huMOV19", "setting": "[1]", "result": 100, "unit": "fold"}]}, {"binder": "B5", "values": [{"measurement": "fold loss of cytotoxicity when FRα is blocked by unconjugated huMOV19", "setting": "[1]", "result": 100, "unit": "fold"}]}]}
